The values that follow come from the DeepSol protein solubility set.

A short description of the series: soluble on expression in E. coli; label from the status in PepcDB or PDB records.
With “GPGSMSSADLFKKFTLQNVAQIANSSHKEQMQVRHDLAEQYPQLADFWEDIMPRKSDIMLVRCHDQVHCVTLVSAQPEVLFFNHHNGPYIPHLKLLHKYPFILQRHQVDVGACKHVLSGANIMCPGLTSKGGYITPEIPAGQLVAVYVETKEHAVAIGKTLMSSEEIKKVNSGPCIENIHHVGDGLWMNRVLSASHIGAR”, the “soluble on expression in E. coli” value was “soluble”.
The result for “GPGSMSSGSHRSPSAMRPSTRISSIGATSNRSSTHNTETELDPFVASLSRVTVYTDIPDKTLQRIMSITVDAYNRFVLVPTRNTWRKEEGSRKELEREVERTALRDIAQAVKVNVEAALGGTWHVIYGRSFATYVTHQQRCFCHFQLDGANVVVWRHGG” reads “soluble”.
Next, “GPGSMSSSNAQAELGPGGSTHSIELGRLIFQGAESKVYCCSFYGALALCKHRFVKRYRDPSLDERLRTQRTRREARALERCVKKGIRAPRLLGADYINTFLVMSYEAGPTVKEALDIEHAAYMQQVSKGKSTSAQQQQPQTTPSPSALGNAAPSPVTAALLQSIGVVVARLHNANIVHGDLTTSNFICTCDGLEAAAPGADGADALASSSPVLPTAEDIVVLDFGLISEKYSTEERAVDLYVLERAIASTHPYLSSFASDIILEGYRSAADPKKGEEALRRLEAVRARGRKRTMIG”: “not soluble”.
In the case of “GPGSMSVKETTIALPLMVESVLDVDSGITATSAISVLDDRAVLIGTSEGSILLCAPVNESAHVLTPYSDTTLHCGAIYDLAVSSDHLVATAGHDAVSCVFPLHTFFRASGVRQCRRITGHTVPVVAVRFLSDGTSLVTLGADGRVLVAEVHSGHVLASLLCGFAATCLACSMDETQLFVGGRSLASIDLHHAMRPMSLQSVAAAASGPDPWASLSSAAAAPGAAASLRTPAWLRLYAWEEKSEATAGASRRQFRAPPHTFIRSLSVDSRDGALTATFARHAGGTSSVEVCGSARWAATGGRTASEATWAPQALQGVSAALRYPMSRDRSTGVATGKLRVRCRVKASARPSAKQTPAPPGSFASTAAALWNGRWYASPFELAGGTPRLTASHGLAETSVFTAEKSDQYGFPSAGPRTPAEELLIAQAQCDELQRECDALVFQIKSFLARKAPIR”, the “soluble on expression in E. coli” value is given as “not soluble”.
Next, “GPGSMTDRLTAEDVFYELSTIRDPERPDCTLADLDVVAMNRCRVEYIESSADFQSLRGQGCNDSGKPSVVVKVILQPTVPHCSLMEFICLCVYVRLREVFSLSNNAKFDITLVDGSHVRQRELEKQVADKERLAAAMEDKALLQEVERHINCE”: “soluble”; “GPGSMTSLNTELALAKRFHMLSKNYSNRPVIARRNTLPTLVRFIRSNDRETRHYSLSALLLLAQHEENVELLCLERGLVPGVYAVYKDADYDDPQLREIADQILNCLEPVLQGRDPRKASQTSVTPVGSSSDAVDSDPLNDSFSPSRRARAGRVLRGVGSDAIHTVLLDIPALDPNGGDNIEAIEDIFQTTRGVLSYSIFVENRQARLFVTCATQVVQQVLSDSGFESVVVRDDVVNQEMFGGGADGSAGLNSGGNRSNTSYYDGGSPQHRPSYLQSVANSIYQSALVLGGGSRNNDTLSARVNEQRTREQEGESTFGYISKTLSKWW”: “not soluble”; “GPGSMTTLVLCDGSEGSLRSIEVACAGNATPTSSMPSQEGSLLLLHVWDTPATRTSVLHPSVGAEGMYTPRRSVSSAAAAAAQTSADAGGHGGSSMPCADVLTTTLQYIHTNKYLKNKLHYTVETTCASTVFARDNTDHSVLSEAGAAPAGGTAASQAAHGRAGQGQKRASCSAGGAGSARRRSDRRPSQRQIDTAAEISAGSSNNTGDGTAPERQEAPVSIPENEKRAMAVVKYATARAAHHHVTAVLLGVGQRQDGKVCTVGAVAQGVLLELRSLYPLYYVKKDGVKWRPALSTTTTTTAATPRRFTIVVAVPADARWESATAAETRSGNEEAAAQTTASIETPSVAPPQVPIHVQEAVAATVQYVQTRCMRLHAALQVEQITFAVIATSSSQDGNSITEPDRGENGGHVAAGPDASGGKDGSTWISPLEAYKRHLESLPFVECKSIPPANAAAPLLSPVNRINPAAVGETGGIEQHLPEDGAAMMCVEGSATGAPAPRGAASPVAVCVLKASKKNPLLSLDSEPEVALPQIIKQVGSLKPEVLVMPKSLVPESLQLALLATSNPHCIVLPF”: “soluble”.
As to “GPGSMVDVIIYTRPGCPYCARAKALLARKGAEFNEIDASATPELRAEMQERSGRNTFPQIFIGSVHVGGCDDLYALEDEGKLDSLLKTGKLI”, the “soluble on expression in E. coli” value is “soluble”.
Regarding “GPGSMWGPNQEVAHPRHDGKSFYLPSTSAAGAAALGASLLPHSNLVCAPLNPHIAREPVDTATGDGDGTVRALLTRFRIENERLRDQVKAHVVQEALLTQRLQELSARNTALHLQDFRKRDNDAVVEKLKKQLEVKEMEVRALQLQVGELNGRISAYEEAISRPDHPQGLSANSMDRVRELICEALSSAGFLTRVANAVEHCHPSTHEVTDCPRSVEECTNHCLQAAMRGNKELPGETAARGHHVSCEELASALREEVLFCETVAVRVAAKLFMERSSADSSAKADRGTGLQHQEESAPPLARPTAECPAEAHELPQSDRRPRRKPAARPTVEDCEVQ”, the “soluble on expression in E. coli” value is on record as “not soluble”.
The result for “GPGSMYHGNGSVNDAADASFCPQPSPTRPSREAPPSAPPPTGRVTRTQALARLLRGEGSSTHTKPVRAPGNDAKELKVSETRKECVVGEVQADAPPKKSEGTSSHAAVPLAASATITPDDRDDIGAALQEIGDASRRHRRHSHDAEGTSGDAVRDDASDGGAANMSDDYNGDDNSESTCSARRSGAGSAPAEGFSAHPTHARARGRAVSTRQAANALPRMLALQRSFEAEAKHLYEYCGTHVVEWPTLAVEWIPDRAFVDPERDYTLQYLAIGTQAHPLSGAANAVKVMEVAVPVTAAKDVMYGLYGDDDTAGVEAVDPAREGGIDPGKRFANVKGHFHCEQTLTMDAAVLKIRAMPAETNVIAVKTASGFIGVYNLLQDLTQNEAGRTVPDALLCGHRRGGFGLSWNALKPGFIASAADDGYVNYYDVSHRLTIDVREASDVDPALTGPETQPLERLVGHRDIVTDCCWHSSQGHLLASSSMDGDARLWDIRMSAGSSTIPSAHASGATAAQFHPIGAFQLATAGAEGSISLWDIRRTADPVWELNYHGRPITGLQWSPFCETVMLSYGADGRVVLWDLAKTTLPLGYSEDQLAPPEVSFVHIGHVGRVTDASWNSSTTEEWLLASADTTNGVHVYRPLVNVVQDYRAYQH” reads “not soluble”.
“GPKDNNKTLKPAIAEYIVKKAKQRIALQRWQDELNRRKNHKGMIFVENTVDLEGPPSDFYYINEYKPAPGISLVNEATFGCSCTDCFFQKCCPAEAGVLLAYNKNQQIKIPPGTPIYECNSRCQCGPDCPNRIVQKGTQYSLCIFRTSNGRGWGVKTLVKIKRMSFVMEYVGEVITSEEAERRGQFYDNKGITYLFDLDYESDEFTVDAARYGNVSHFVNHSCDPNLQVFNVFIDNLDTRLPRIALFSTRTINAGEELTFDYQMKGSGDISSDSIDHSPAKKRVRTVCKCGAVTCRGYLN”: the “soluble on expression in E. coli” value is “soluble”.
The result for “GPLGSCDSGTGLTGNYSQDTLTVIATLREAIDLPQDAPNRQEVQDTARGQINDYISRYRRKGDAGGLKSFTTMQTALNSLAGYYTSYGARPIPEKLKKRLQLEFTQAERSIERGV” reads “soluble”.
The result for “GPLGSMSAAIAKPSAKPSAHVDPKSAPLKEIPDVLVDPRTMKRYMRGRFLGKGGFAKCYEITDMDTKEVFAGKVVPKSMLLKPHQKEKMSTEIAIHKSLDNPHVVGFHGFFEDDDFVYVVLEICRRRSLLELHKRRKAVTEPEARYFMRQTIQGVQYLHNNRVIHRDLKLGNLFLNDDMDVKIGDFGLATKIEFDGERKKTLCGTPNYIAPEVLCKKGHSFEVDIWSLGCILYTLLVGKPPFETSCLKETYIRIKKNEYSVPRHINPVASALIRRMLHADPTLRPSVAELLTDEFFTSGYAPMRLPTSCLTVPPRFS” reads “soluble”; that for “GPLGSQELRLRVQGKEKHQMLEISLSPDSPLKVLMSHYEEAMGLSGHKLSFFFDGTKLSGKELPADLGLESGDLIEVWG”, “soluble”; that for “GPSSPAGGEARVHVLVLSSWRSGSSFVGQLFNQHPDVFYLMEPAWHVWTTLSQGSAATLHMAVRDLVRSVFLCDMDVFDAYLPWRRNLSDLFQWAVSRALCSPPACSAFPRGAISSEAVCKPLCARQSFTLAREACRSYSHVVLKEVRFFNLQVLYPLLSDPALNLRIVHLVRDPRAVLRSREQTAKALARDNGIVLGTNGTWVEADPGLRVVREVCRSHVRIAEAATLKPPPFLRGRYRLVRFEDLAREPLAEIRALYAFTGLSLTPQLEAWIHNITHGSGPGARREAFKTSSRNALNVSQAWRHALPFAKIRRVQELCAGALQLLGYRPVYSEDEQRNLALDLVLPRGLNGFTWASSTASHPRN”, “soluble”.
The result for “GQSAKEAIEAANADFVKAYNSKDAAGVASKYMDDAAAFPPDMARVDGRQNIQKLWQGAMDMGISELKLTTLDVQESGDFAFESGSFSLKAPGKDSKLVDAAGKYVVVWRKGQDGGWKLYRDIWNSDPAK” reads “soluble”.
Regarding “GQVIARHKVREFNINPVNTPTKSKLHPSVFYDVFPGDKEPAVLSDNDPRLEVKLTESLFSKYKGNVNTEPTENMLVAVDHYAGQLLSLDIPTSELTLKEALYGVDGLEPIDITTSAGFPYVSLGIKKRDILNKETQDTEKMKFYLDKYGIDLPLVTYIKDELRSVDKVRLGKSRLIEASSLNDSVNMRMKLGNLYKAFHQNPGVLTGSAVGCDPDVFWSVIPCLMDGHLMAFDYSNFDASLSPVWFVCLEKVLTKLGFAGSSLIQSICNTHHIFRDEIYVVEGGMPSGCSGTSIFNSMINNIIIRTLILDAYKGIDLDKLKILAYGDDLIVSYPYELDPQVLATLGKNYGLTITPPDKSETFTKMTWENLTFLKRYFKPDQQFPFLVHPVMPMKDIHESIRWTKDPKNTQDHVRSLCMLAWHSGEKEYNEFIQKIRTTDIGKCLILPEYSVLRRRWLDLFHHHHHH”, the “soluble on expression in E. coli” value is listed as “soluble”.
Next, “GRISMTVKKLYFIPAGRCMLDHSSVNSALTPGKLLNLPVWCYLLETEEGPILVDTGMPESAVNNEGLFNGTFVEGQILPKMTEEDRIVNILKRVGYEPDDLLYIISSHLHFDHAGGNGAFTNTPIIVQRTEYEAALHREEYMKECILPHLNYKIIEGDYEVVPGVQLLYTPGHSPGHQSLFIETEQSGSVLLTIDASYTKENFEDEVPFAGFDPELALSSIKRLKEVVKKEKPIIFFGHDIEQEKSCRVFPEYI”: “soluble”; “GRRIQGQRRGRGTSTFRAPSHRYKADLEHRKVEDGDVIAGTVVDIEHDPARSAPVAAVEFEDGDRRLILAPEGVGVGDELQVGVDAEIAPGNTLPLAEIPEGVPVCNVESSPGDGGKFARASGVNAQLLTHDRNVAVVKLPSGEMKRLDPQCRATIGVVGGGGRTDKPFVKAGNKHHKMKARGTKWPNVRGVAMNAVDHPFGGGGRQHPGKPKSISRNAPPGRKVGDIASKRTGRGGNE”: “soluble”; “GSEDFTFDGTKRLSVNYVKGILQPTDTCDIWDKIWNFQAKPDDLLISTYPKAGTTWTQEIVELIQNEGDVEKSKRAPTHQRFPFLEMKIPSLGSGLEQAHAMPSPRILKTHLPFHLLPPSLLEKNCKIIYVARNPKDNMVSYYHFQRMNKALPAPGTWEEYFETFLAGKVCWGSWHEHVKGWWEAKDKHRILYLFYEDMKKNPKHEIQKLAEFIGKKLDDKVLDKIVHYTSFDVMKQNPMANYSSIPAEIMDHSISPFMRKGAVGDWKKHFTVAQNERFDEDYKKKMTDTRLTFHFQF”: “soluble”.
The result for “GSHMAPDCSQPLDVILLLDGSSSFPASYFDEMKSFAKAFISKANIGPRLTQVSVLQYGSITTIDVPWNVVPEKAHLLSLVDVMQREGGPSQIGDALGFAVRYLTSEMHGARPGASKAVVILVTDVSVDSVDAAADAARSNRVTVFPIGIGDRYDAAQLRILAGPAGDSNVVKLQRIEDLPTMVTLGNSFLHKLCSG” reads “soluble”.
